Measurements: the supplement of paper PMC9233669
Fewer inactive variants are shown than the library holds.

What was measured:
biotinyl-Phe-oxazolone = assay: self-aminoacylation, catalytic enhancement (BFO) (fold over background); higher = more active; k-Seq, kA / k0A0; sequences stand for … in GGGAAUGGAUCCACAUCUACGAAUUC…UUCACUGCAGACUUGACGAAGCUG
How it was run: (§1)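 Mutagenized RNA pools (0.43 μM; 21-nt variable region) were treated with 2–1250 μM of each biotinyl-aminoacyl-oxazolone. Conditions were 50 μL HEPES/NaCl/KCl/MgCl2/CaCl2 buffer, 5% acetonitrile, pH 6.9–7.0, room temperature, 90 minutes. Catalytic enhancement, the median kA relative to the uncatalyzed rate, was derived from streptavidin capture, qPCR and Illumina sequencing.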

biotinyl-Ile-oxazolone = assay: self-aminoacylation, catalytic enhancement (BIO) (fold over background); higher = more active; k-Seq, kA / k0A0; sequences stand for … in GGGAAUGGAUCCACAUCUACGAAUUC…UUCACUGCAGACUUGACGAAGCUG
How it was run: as §1

biotinyl-Met-oxazolone = assay: self-aminoacylation, catalytic enhancement (BMO) (fold over background); higher = more active; k-Seq, kA / k0A0; sequences stand for … in GGGAAUGGAUCCACAUCUACGAAUUC…UUCACUGCAGACUUGACGAAGCUG
How it was run: as §1

biotinyl-Val-oxazolone = assay: self-aminoacylation, catalytic enhancement (BVO) (fold over background); higher = more active; k-Seq, kA / k0A0; sequences stand for … in GGGAAUGGAUCCACAUCUACGAAUUC…UUCACUGCAGACUUGACGAAGCUG
How it was run: as §1

biotinyl-Leu-oxazolone = assay: self-aminoacylation, catalytic enhancement (BLO) (fold over background); higher = more active; k-Seq, kA / k0A0; sequences stand for … in GGGAAUGGAUCCACAUCUACGAAUUC…UUCACUGCAGACUUGACGAAGCUG
How it was run: as §1

biotinyl-Trp-oxazolone = assay: self-aminoacylation, catalytic enhancement (BWO) (fold over background); higher = more active; k-Seq, kA / k0A0; sequences stand for … in GGGAAUGGAUCCACAUCUACGAAUUC…UUCACUGCAGACUUGACGAAGCUG
How it was run: as §1

| Sequence | self-aminoacylation (biotinyl-Phe-oxazolone) | self-aminoacylation (biotinyl-Ile-oxazolone) | self-aminoacylation (biotinyl-Met-oxazolone) | self-aminoacylation (biotinyl-Val-oxazolone) | self-aminoacylation (biotinyl-Leu-oxazolone) | self-aminoacylation (biotinyl-Trp-oxazolone) |
| --- | --- | --- | --- | --- | --- | --- |
| CCACGCUUCAAGCAAUCGGAC [Fam1B.1 aminoacylation ribozyme variant] | 1.87 | 0.794 | 0.64 | 0.666 | 0.696 | 1.24 |
| CCACUAUUCAAGCAAUCGGUC [Fam1B.1 aminoacylation ribozyme variant] | 1.75 | 1.04 | 0.916 | 1.09 | 0.944 | 1.23 |
| CCACUCUUCAAGCAGUCGGUC [Fam1B.1 aminoacylation ribozyme variant] | 1.07 | 1.04 | 1.03 | 1.1 | 1.24 | 1.28 |
| CCACUCUUCAGGCAAUCGGUC [Fam1B.1 aminoacylation ribozyme variant] | 0.929 | 1.31 | 1.34 | 1.49 | 1.33 | 1.23 |
| CCACUCUUCGAGCAAUCGGUC [Fam1B.1 aminoacylation ribozyme variant] | 0.996 | 1.19 | 1.03 | 1.24 | 0.964 | 1.32 |
| CCACUUCAAACAAUCCGUCUG [Fam1A.1 aminoacylation ribozyme variant] | 2.13 | 1.08 | 0.967 | 1.01 | 0.795 | 1.85 |
| CCACUUCAAACAAUCGGCCUG [Fam1A.1 aminoacylation ribozyme variant] | 425 | 4.3 | 4.68 | 4.05 | 7.46 | 145 |
| CCACUUCAAACAAUCGGUGUG [Fam1A.1 aminoacylation ribozyme variant] | 12.5 | 1.13 | 1.79 | 1.33 | 2.34 | 9.94 |
| CCACUUCAAACACUCGGUCUG [Fam1A.1 aminoacylation ribozyme variant] | 4.37 | 1.45 | 1.75 | 2.14 | 1.73 | 1.5 |
| CCACUUCAAACCAUCGGUCUG [Fam1A.1 aminoacylation ribozyme variant] | 1.49 | 1.31 | 0.947 | 1.29 | 1.24 | 1.16 |
| CCAGAAUUCAAGCAAUCGGUC [Fam1B.1 aminoacylation ribozyme variant] | 2.26 | 1.91 | 1.65 | 1.6 | 2.3 | 1.81 |
| CCAGACAUCAAGCAAUCGGUC [Fam1B.1 aminoacylation ribozyme variant] | 1.06 | 0.911 | 0.825 | 0.993 | 0.896 | 0.802 |
| CCAGACUUCAAGCAACCGGUC [Fam1B.1 aminoacylation ribozyme variant] | 1.53 | 1.47 | 0.698 | 1.36 | 1.02 | 2 |
| CCAGACUUCAAGCAAUCGGCC [Fam1B.1 aminoacylation ribozyme variant] | 17 | 3.33 | 4.19 | 3.43 | 4.53 | 6.87 |
| CCAGACUUCAAGCAAUCGGUA [Fam1B.1 aminoacylation ribozyme variant] | 1.22 | 1.41 | 1.66 | 1.4 | 1.16 | 1.75 |
| CCAGACUUCAAGCAAUCGGUG [Fam1B.1 aminoacylation ribozyme variant] | 29.2 | 4.56 | 6.21 | 4.1 | 8.51 | 7.25 |
| CCAGACUUCAAGCCAUCGGUC [Fam1B.1 aminoacylation ribozyme variant] | 0.714 | 1.34 | 1.17 | 1.46 | 1.24 | 1.33 |
| CCAUACUACAAGCAAUCGGUC [Fam1B.1 aminoacylation ribozyme variant] | 0.942 | 0.884 | 0.696 | 0.779 | 0.772 | 0.655 |
| CCAUACUUAAAGCAAUCGGUC [Fam1B.1 aminoacylation ribozyme variant] | 0.813 | 0.92 | 0.804 | 0.904 | 0.802 | 0.674 |
| CCAUACUUCAAGAAAUCGGUC [Fam1B.1 aminoacylation ribozyme variant] | 5.18 | 0.907 | 0.777 | 0.787 | 0.87 | 4.39 |
| CCAUACUUCAAGCAAGCGGUC [Fam1B.1 aminoacylation ribozyme variant] | 0.737 | 1.09 | 0.775 | 1.03 | 0.875 | 0.726 |
| CCAUACUUCAAGCAAUCGGAC [Fam1B.1 aminoacylation ribozyme variant] | 1.21 | 1.01 | 1.17 | 1.06 | 0.856 | 0.768 |
| CCAUACUUCAAGCAAUCGGUU [Fam1B.1 aminoacylation ribozyme variant] | 3.48 | 1.61 | 1.17 | 1.71 | 1.61 | 2.98 |
| CCAUACUUCAAGCAAUGGGUC [Fam1B.1 aminoacylation ribozyme variant] | 0.918 | 1.04 | 0.972 | 1 | 0.926 | 0.627 |
| CCAUACUUCAAGCACUCGGUC [Fam1B.1 aminoacylation ribozyme variant] | 1.11 | 1.01 | 0.904 | 1.07 | 0.962 | 0.69 |
| CCAUACUUCAAGCUAUCGGUC [Fam1B.1 aminoacylation ribozyme variant] | 0.984 | 1.05 | 0.801 | 1.09 | 0.952 | 0.697 |

| Sequence | self-aminoacylation (biotinyl-Phe-oxazolone) | self-aminoacylation (biotinyl-Ile-oxazolone) | self-aminoacylation (biotinyl-Met-oxazolone) | self-aminoacylation (biotinyl-Val-oxazolone) | self-aminoacylation (biotinyl-Leu-oxazolone) | self-aminoacylation (biotinyl-Trp-oxazolone) |
| --- | --- | --- | --- | --- | --- | --- |
| CCAUACUUCAAGGAAUCGGUC [Fam1B.1 aminoacylation ribozyme variant] | 3.91 | 0.976 | 1.06 | 0.934 | 1.07 | 3.57 |
| CCCAACUUCAAGCAAUCGGUC [Fam1B.1 aminoacylation ribozyme variant] | 78.4 | 1.56 | 1.49 | 1.74 | 2.34 | 40.9 |
| CCCCACCUCAAGCAAUCGGUC [Fam1B.1 aminoacylation ribozyme variant] | 5.97 | 1.73 | 1.48 | 2.2 | 1.48 | 4.87 |
| CCCCACUUCAAGCAAUCGGAC [Fam1B.1 aminoacylation ribozyme variant] | 2.8 | 1.45 | 1.44 | 1.52 | 1.19 | 2.45 |
| CCCCACUUCAAGCAAUCGGCC [Fam1B.1 aminoacylation ribozyme variant] | 20.8 | 2.74 | 3.04 | 3.8 | 2.75 | 11.3 |
| CCCCACUUCAAGCAAUCGGUG [Fam1B.1 aminoacylation ribozyme variant] | 75.4 | 6.57 | 11 | 7.84 | 13.9 | 12.5 |
| CCCCACUUCAAGCAAUCGGUU [Fam1B.1 aminoacylation ribozyme variant] | 12.7 | 2.66 | 3.35 | 3.68 | 4.7 | 16.9 |
| CCCCACUUCAAGCAAUCGUUC [Fam1B.1 aminoacylation ribozyme variant] | 1.77 | 0.898 | 0.697 | 0.849 | 0.697 | 1.12 |
| CCCCACUUCACGCAAUCGGUC [Fam1B.1 aminoacylation ribozyme variant] | 7.33 | 2.06 | 2.31 | 2.61 | 2.44 | 4.55 |
| CCCCACUUCAGGCAAUCGGUC [Fam1B.1 aminoacylation ribozyme variant] | 9.29 | 2.56 | 2.35 | 2.64 | 2.63 | 5.21 |
| CCGCACUACAAGCAAUCGGUC [Fam1B.1 aminoacylation ribozyme variant] | 1.55 | 1.33 | 0.932 | 1.32 | 1.02 | 1.36 |
| CCGCACUUCAACCAAUCGGUC [Fam1B.1 aminoacylation ribozyme variant] | 148 | 2.09 | 2.05 | 2.38 | 3.41 | 67.5 |
| CCGCACUUCAAGCAAUCGGAC [Fam1B.1 aminoacylation ribozyme variant] | 1.31 | 1.07 | 1 | 1.12 | 0.812 | 1.86 |
| CCGCACUUCAAGCGAUCGGUC [Fam1B.1 aminoacylation ribozyme variant] | 2.22 | 1.34 | 1.53 | 1.8 | 1.3 | 4.81 |
| CCUAACUUCAAGCAAUCGGUC [Fam1B.1 aminoacylation ribozyme variant] | 46.5 | 1.18 | 1.02 | 1.01 | 1.54 | 19.9 |
| CCUCACUCCAAGCAAUCGGUC [Fam1B.1 aminoacylation ribozyme variant] | 5.18 | 1.03 | 0.767 | 0.947 | 0.915 | 2.39 |
| CCUCACUGCAAGCAAUCGGUC [Fam1B.1 aminoacylation ribozyme variant] | 1.44 | 1.26 | 0.832 | 1.41 | 1.24 | 1.17 |
| CCUCACUUCAAGGAAUCGGUC [Fam1B.1 aminoacylation ribozyme variant] | 6.28 | 0.76 | 0.946 | 0.869 | 0.936 | 4.27 |
| CCUCACUUCAUGCAAUCGGUC [Fam1B.1 aminoacylation ribozyme variant] | 1.17 | 0.734 | 0.642 | 0.773 | 0.735 | 0.804 |
| CCUCAUUUCAAGCAAUCGGUC [Fam1B.1 aminoacylation ribozyme variant] | 5.96 | 1.11 | 1.07 | 1.05 | 1.08 | 2.75 |
| CCUGACUUCAAGCAAUCGGUC [Fam1B.1 aminoacylation ribozyme variant] | 45.6 | 1.22 | 1.17 | 1.35 | 1.63 | 23.1 |
| CCUUACUUCAAGCAAUCGGUC [Fam1B.1 aminoacylation ribozyme variant] | 31.6 | 1.09 | 1.06 | 1.08 | 1.3 | 13 |
| CGACACUCCAAGCAAUCGGUC [Fam1B.1 aminoacylation ribozyme variant] | 0.914 | 1.11 | 0.665 | 1.11 | 0.842 | 1.19 |
| CGACACUUCAAGCAAUUGGUC [Fam1B.1 aminoacylation ribozyme variant] | 0.985 | 0.908 | 0.864 | 0.718 | 0.668 | 0.777 |
| CGACACUUCAAGCACUCGGUC [Fam1B.1 aminoacylation ribozyme variant] | 1.46 | 1.28 | 1.38 | 1.32 | 1.3 | 2 |
